{"source": "patent US20230212319A1", "about": "“NOVEL ANTIGEN BINDING DOMAINS AND SYNTHETIC ANTIGEN RECEPTORS INCORPORATING THE SAME” (University of Southern California, priority 2020, published 2023)", "molecules": {"B1": {"name": "10518 (protein)", "chain": "MALPVTALLLPLALLLHAARPEVQLVESGGGLVQPGGSLRLSCAASGYTFSDYFMSWVRQAPGKGLEWVATISNGGTYTYYPDSVKGRFTISRDNSKNTLYLQMNSLRAEDTAVYYCARFDGYIFDYWGQGTLVTVSSGGGGSGGGGSGGGGSDIQMTQSPSSLSASVGDRVTITCRASQDISNYLNWYQQKPGKAPKLLIYYTSRLHSGVPSRFSGSGSGTDFTLTISSLQPEDFATYYCQQGNTLPYTFGQGTKVEIKRTREQKLISEEDLAKPTTTPAPRPPTPAPTIASQPLSLRPEACRPAAGGAVHTRGLDFACDIYIWAPLAGTCGVLLLSLVITLYCKRGRKKLLYIFKQPFMRPVQTTQEEDGCSCRFPEEEEGGCELRVKFSRSADAPAYQQGQNQLYNELNLGRREEYDVLDKRRGRDPEMGGKPRRKNPQEGLYNELQKDKMAEAYSEIGMKGERRRGKGHDGLYQGLSTATKDTYDALHMQALPPR", "modifications": "Synthetic Polynucloetide"}, "B2": {"name": "10587 (protein)", "chain": "B1 chain with Y48F, N184S", "modifications": "Synthetic Polynucloetide"}, "B3": {"name": "10656 (protein)", "chain": "B1 chain with Y48F, Y249W", "modifications": "Synthetic Polynucloetide"}, "B4": {"name": "22178 (protein)", "chain": "MALPVTALLLPLALLLHAARPEVQLVESGGGVVQPGRSLRLSCAASGFSFSGYGMHWVRQAPGKGLEWVAYISYDGSNKYYADSVKGRFTISRDNSKNTLYLQMNSLRAEDTAVYYCAKDPAWGLRLGESSSYDFDIWGQGTMVTVSSGTGGGGSGGGGSGGGGSEFDIQMTQSPSSLSASVGDRVTITCKASDHINNWLAWYQQKPGQAPKLLIYGATTLETGVPSRFSGSGSGTDYTLTISSLQPEDFATYYCQQSWNTPWTFGQGTKLEIKRLEDLKNVFPPEVAVFEPSKAEIAHTQKATLVCLATGFYPDHVELSWWVNGKEVHSGVCTDPQPLKEQPALNDSRYCLSSRLRVSATFWQNPRNHFRCQVQFYGLSENDEWTQDRAKPVTQIVSAEAWGRADCGITSASYHQGVLSATILYEILLGKATLYAVLVSALVLMAMVKRKDSRGRAKRSGSGATNFSLLKQAGDVEENPGPTSATMDWIWRILFLVGAATGAHSGPQVQLQESGGGLAQAGGSLRLSCAASGRTFSMGWFRQAPGKEREFVAAITYSGGSPYYASSVRGRFTISRDNAKNTVYLQMNSLKPEDTAVYYCAANPTYGSDWNAENWGQGTQVTVSSGSGGGGSGGGGSGGGGSFEQVQLQQPGAELVKPGASVKMSCKASGYAFSSYWINWMKQKPGQGLEWIGQIYPGDGDTNYNGKFKGRATLTADTSSSTAYMQLSSLTSEDSAVYFCARSITTVVGCAMDYWGQGTSVTVSSTRIQNPDPAVYQLRDSKSSDKSVCLFTDFDSQTNVSQSKDSDVYITDKCVLDMRSMDFKSNSAVAWSNKSDFACANAFNNSIIPEDTFFPSSDVPCDVKLVEKSFETDTNLNFQNLSVIGFRILLLKVAGFNLLMTLRLWSSRAKRSGSGVKQTLNFDLLKLAGDVESNPGPSRGHMTEYKPTVRLATRDDVPRAVRTLAAAFADYPATRHTVDPDRHIERVTELQELFLTRVGLDIGKVWVADDGAAVAVWTTPESVEAGAVFAEIGPRMAELSGSRLAAQQQMEGLLAPHRPKEPAWFLATVGVSPDHQGKGLGSAVVLPGVEAAERAGVPAFLETSAPRNLPFYERLGFTVTADVEVPEGPRTWCMTRKPGA"}}, "key": {"SKOV3-Luc cells": {"system": "SKOV3-Luc cells", "assay": "SKOV3 xenograft in NSG mice", "settings": "1 × 10^6 SKOV3-Luc s.c., a week later 3 × 10^6 SAR-T i.v."}, "LNCaP cells": {"system": "LNCaP cells", "assay": "JNG assay, co-culture with LNCaP cells", "format": "cell-based", "settings": "co-culture with LNCaP", "outline": "(§1)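 NFAT-driven GFP in stably SAR-transduced Jurkat cells after coculture (E:T ~1:2; ~4–18 h), measured by flow cytometry and expressed as % GFP+ cells over parental Jurkat-NFAT-GFP cells.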"}, "L363 cells": {"system": "L363 cells", "assay": "JNG assay, co-culture with L363 cells", "format": "cell-based", "settings": "co-culture with L363", "outline": "(§2)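 Jurkat-NFAT-GFP (JNG) cells stably expressing SAR constructs via lentiviral transduction and puromycin/blasticidin selection were cocultured with target cells at E:T ~1:2 for ~4–18 h. NFAT-driven GFP was measured by FACS versus parental JNG cells; scores +/- to 5+ denote ~5–50% GFP-positive cells.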"}, "RS;411": {"system": "RS;411", "assay": "JNG assay, co-culture with RS;411 cells", "format": "cell-based", "settings": "co-culture with RS411", "outline": "as §2"}, "Nalm6 cells": {"system": "Nalm6 cells", "assay": "JNG assay, co-culture with Nalm6 cells", "format": "cell-based", "settings": "co-culture with Nalm6", "outline": "as §1"}, "RAJI-CD19-KO cells": {"system": "RAJI-CD19-KO cells", "assay": "JNG assay, co-culture with RAJI-CD19-KO cells", "format": "cell-based", "settings": "co-culture with Raji-CD19-KO", "outline": "as §2"}}, "note": "Where a chain is given by its changes, count along the chain named."}
{"molecule": "B1", "values": [{"measurement": "tumor inhibition / protection, SKOV3 xenograft", "setting": "SKOV3-Luc cells", "value": "weak protection"}]}
{"molecule": "B2", "values": [{"measurement": "tumor inhibition / protection, SKOV3 xenograft", "setting": "SKOV3-Luc cells", "value": "weak protection"}]}
{"molecule": "B3", "values": [{"measurement": "tumor inhibition / protection, SKOV3 xenograft", "setting": "SKOV3-Luc cells", "value": "weak protection"}]}
{"molecule": "B4", "values": [{"measurement": "NFAT-GFP ASSAY: LNCaP", "setting": "LNCaP cells", "value": "5+ (refer to approximately 5%, 10%, 20%, 30%, 40% and 50% GFP positive cells)"}, {"measurement": "NFAT-GFP ASSAY: L363", "setting": "L363 cells", "value": "+/- (refer to approximately 5%, 10%, 20%, 30%, 40% and 50% GFP positive cells)"}, {"measurement": "NFAT-GFP ASSAY: RS411", "setting": "RS;411", "value": "+ (refer to approximately 5%, 10%, 20%, 30%, 40% and 50% GFP positive cells)"}, {"measurement": "NFAT-GFP ASSAY: Nalm6", "setting": "Nalm6 cells", "value": "5+ (refer to approximately 5%, 10%, 20%, 30%, 40% and 50% GFP positive cells)"}, {"measurement": "NFAT-GFP ASSAY: Raji-CD19-KO", "setting": "RAJI-CD19-KO cells", "value": "5+ (refer to approximately 5%, 10%, 20%, 30%, 40% and 50% GFP positive cells)"}]}
